The values that follow come from PMC3291610, “Identification of the Neogenin-Binding Site on the Repulsive Guidance Molecule A” (PLoS ONE, 2012).

The target of this test is T1, Recombinant mouse neogenin-Fc chimera protein (mouse, UniProt P97798 37-1136).
T1 construct: neogenin, mouse, extracellular domain (ECD); No catalogue number printed; detected by an anti-IgG Fc antibody; also called neogenin-ECD-Fc; Fc-fused neogenin ECD; source: bought: R&D Systems
T1 sequence (looked up): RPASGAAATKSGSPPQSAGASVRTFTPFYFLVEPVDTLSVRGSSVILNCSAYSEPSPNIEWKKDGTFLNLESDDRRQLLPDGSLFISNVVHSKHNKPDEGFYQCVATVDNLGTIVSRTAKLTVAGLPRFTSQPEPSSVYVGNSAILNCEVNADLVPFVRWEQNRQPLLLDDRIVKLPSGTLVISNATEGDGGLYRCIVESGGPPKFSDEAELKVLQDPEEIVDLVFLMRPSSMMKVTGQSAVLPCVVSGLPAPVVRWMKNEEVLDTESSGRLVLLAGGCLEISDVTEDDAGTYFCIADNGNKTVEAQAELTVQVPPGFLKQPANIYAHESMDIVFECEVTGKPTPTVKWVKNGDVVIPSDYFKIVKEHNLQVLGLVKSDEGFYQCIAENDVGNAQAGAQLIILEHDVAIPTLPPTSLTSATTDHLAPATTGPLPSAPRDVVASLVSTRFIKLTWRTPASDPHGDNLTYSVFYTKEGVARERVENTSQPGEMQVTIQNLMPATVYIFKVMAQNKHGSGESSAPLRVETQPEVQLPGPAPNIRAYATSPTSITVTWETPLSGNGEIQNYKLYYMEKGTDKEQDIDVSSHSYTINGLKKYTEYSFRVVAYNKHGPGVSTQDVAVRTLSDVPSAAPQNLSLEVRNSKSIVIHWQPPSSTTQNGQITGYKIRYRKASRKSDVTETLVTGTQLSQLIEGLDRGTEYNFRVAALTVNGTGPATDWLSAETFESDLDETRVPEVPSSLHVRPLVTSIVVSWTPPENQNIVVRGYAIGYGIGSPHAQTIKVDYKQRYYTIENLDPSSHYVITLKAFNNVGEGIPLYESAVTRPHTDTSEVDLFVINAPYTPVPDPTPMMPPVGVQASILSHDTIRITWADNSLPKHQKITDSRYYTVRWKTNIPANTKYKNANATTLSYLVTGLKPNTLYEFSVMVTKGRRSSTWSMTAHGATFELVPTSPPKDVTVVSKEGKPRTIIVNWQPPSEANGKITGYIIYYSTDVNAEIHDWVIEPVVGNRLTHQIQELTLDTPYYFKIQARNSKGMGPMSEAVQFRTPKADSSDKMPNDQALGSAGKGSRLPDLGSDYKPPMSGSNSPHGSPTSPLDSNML
Put plainly: ELISA; synthetic TAT-RGMa peptides coated on the plate (5 µg/mL, 16 h, 4°C), blocked with 5% BSA/PBS; neogenin-Fc added at 1 µg/mL for 1 h; detected with anti-IgG Fc antibody and HRP secondary, A450. The note with it: both partners purified. (ELISA stands for enzyme-linked immunosorbent assay.)

B1: RGMa peptide 4 (aa 284-293) fused with an N-terminal TAT protein (peptide)
peptide: YGRKKRRQRRRRQVGRYLTFA
notes: The TAT-fused form was used in the ELISA; peptide 4 without TAT was used in the growth cone collapse assay; also called Pep4; source: synthetic peptide (SIGMA Life Science, Japan)
With B1, the binding result is on record as “binds”.
